The values that follow come from patent US5622932A (Eli Lilly and Company, priority 1995, dated 1997).

Test [1] deals with T1, IGF-1 receptor (Homo sapiens, UniProt P08069).
T1 construct: 30-50 μg of human placental membrane protein was incubated; from tissue; host or cells: human placental membranes
Kind of test: IGF-1 radioreceptor assay (displacement of [125I] ligand from human placental membranes). Type of test: binding. The conditions noted are these: relative to BCAD (IGF-1) = 100; human placental membrane, 24 hours at 4° C., from EC50 values. The protocol:
(§1) 67:194-197. Briefly, 30-50 μg of human placental membrane protein was incubated with approximately 10 femtomoles of [^125 I] ligand in a final volume of 500 μl of 100 mM HEPES, pH 7.8, 120 mM NaCl, 5 mM KCl, 1.2 mM MgSO4, 8 mM glucose and 0.25% BSA for 24 hours at 4° C. Membranes were collected on glass fiber filters pre-treated with 0.1% polyethyleneimine by using a cell harvester (Skatron, Lier, Norway). Binding data were analyzed by fitting displacement curves to a four parameter model employing Prefit/Allfit® software for the determination of EC50 values.
Background: Loss of bound radioactivity is the signal in a displacement assay; it reports binding, not function.

Test [2] addresses T2, insulin receptor (Homo sapiens, UniProt P06213).
T2 construct: 30-50 μg of human placental membrane protein was incubated; from tissue; host or cells: human placental membranes
Kind of test: Insulin radioreceptor assay (displacement of [125I] ligand from human placental membranes). The settings on record: relative to b,a (insulin) = 100; human placental membrane, 24 hours at 4° C., from EC50 values. Type of test: binding. Here is the method:
as §1

For the substance insulin [b,a (insulin)], in test [1], the “% IGF-1 POTENCY” value came out at 0.37%. Consider IGF-1 [BCAD (IGF-1)], for which the “% INSULIN POTENCY” value in test [2] is given as 1.2%. With proinsulin [bca (proinsulin)], in test [1], the “% IGF-1 POTENCY” value is < 0.1%.
